One data set deals with T1, GST-hnRNP H (GST-H) (UniProt P31943 1-449).
T1 sequence: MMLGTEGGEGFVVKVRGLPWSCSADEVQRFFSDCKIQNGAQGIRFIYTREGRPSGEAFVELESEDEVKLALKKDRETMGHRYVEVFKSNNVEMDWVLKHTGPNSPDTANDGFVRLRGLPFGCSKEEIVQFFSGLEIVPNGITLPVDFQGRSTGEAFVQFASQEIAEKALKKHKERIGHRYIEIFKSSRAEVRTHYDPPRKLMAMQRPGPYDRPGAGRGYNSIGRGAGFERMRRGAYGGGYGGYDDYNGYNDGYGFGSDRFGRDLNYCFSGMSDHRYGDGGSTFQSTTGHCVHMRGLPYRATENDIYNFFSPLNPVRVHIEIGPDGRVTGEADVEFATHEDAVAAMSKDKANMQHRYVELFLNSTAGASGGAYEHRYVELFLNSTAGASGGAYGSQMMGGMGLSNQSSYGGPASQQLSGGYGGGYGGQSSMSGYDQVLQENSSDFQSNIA
The data set can be described thus: EMSA; 100-400 ng GST-H; Crosslinking: 1x Roeder D buffer, 1 mM ATP, 1.7 mM MgCl2, 0.1 uM heparin, 30 min 30 C; EMSA: 1 pmol 32P-RNA, native 6-8% PAGE, buffer details not in material. The note with it: protein: recombinant; tags: GST; label: 32P. Background: Mobility shift assays separate free from complexed probe on a gel.

The target of another data set is GST-FUS (FUS/TLS) (UniProt P35637 1-526). The data set can be described thus: EMSA; GST-FUS; Crosslinking: 1x Roeder D buffer, 1 mM ATP, 1.7 mM MgCl2, 0.1 uM heparin, 30 min 30 C; EMSA: 1 pmol 32P-RNA, native 6-8% PAGE, buffer details not in material. As to conditions: protein: recombinant; tags: GST; label: 32P.
Sequence of GST-FUS (FUS/TLS) (P35637 whole entry): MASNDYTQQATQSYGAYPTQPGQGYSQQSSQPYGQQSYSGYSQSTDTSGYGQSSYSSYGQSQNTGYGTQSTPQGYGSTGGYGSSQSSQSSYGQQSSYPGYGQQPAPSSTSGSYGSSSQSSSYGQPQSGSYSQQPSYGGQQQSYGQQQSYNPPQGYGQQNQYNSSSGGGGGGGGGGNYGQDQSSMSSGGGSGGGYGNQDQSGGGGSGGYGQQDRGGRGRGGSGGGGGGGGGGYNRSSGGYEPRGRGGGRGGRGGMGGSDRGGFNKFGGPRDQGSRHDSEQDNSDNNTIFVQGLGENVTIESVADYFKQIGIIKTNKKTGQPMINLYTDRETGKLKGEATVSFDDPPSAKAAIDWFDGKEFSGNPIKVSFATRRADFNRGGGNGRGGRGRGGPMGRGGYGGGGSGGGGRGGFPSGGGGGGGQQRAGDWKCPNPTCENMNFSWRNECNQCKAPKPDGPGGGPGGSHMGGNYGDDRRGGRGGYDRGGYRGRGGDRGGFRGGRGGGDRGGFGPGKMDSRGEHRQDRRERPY

In the case of GGGACGCCGGGGUCUGGGCUCACGCCC (ssRNA) [ΔrasISS1], the binding result with GST-hnRNP H (GST-H) is recorded as “no binding”.

In the case of GGGACGGCAGGGCGUGAGGGAGGCGAGGGCCGGGGUCUGGGCUCACGCCC (ssRNA) [rasISS1], the binding result in the data set with GST-FUS (FUS/TLS) is recorded as “no binding”; with GST-hnRNP H (GST-H), “binds”.
